Experimental data: patent publication US20210371530A1 (Merck Sharp & Dohme, published 2021)

Assays:
[1] = molecular target: T1, polyhistidine-tagged human PD-1 (hPD1-His, 98AFK) (human, UniProt Q15116 25-167, limits assumed); assay: SPR capture format; reference Mouse 08A
T1 construct: Lot 98AFK; also called human PD1-His; Human PD-1-His; not shown: polyhistidine tag
Method: A surface plasmon resonance (SPR)-based assay utilizing capture mode was used to determine the binding kinetics and affinities of anti-PD-1 antibodies against polyhistidine-tagged human PD-1 (hPD1-His, 98AFK). Following manufacture instructions, a series S sensor chip CM5 (GE Healthcare, BR100530) was activated using an amine-coupling kit (GE Healthcare, BR100050). Either human capture kit (anti-human Fc, 25 μg/mL, GE Healthcare, BR100839) or mouse capture kit (anti-mouse Fc, 30 μg/mL, GE Healthcare, BR100838) antibody diluted in the supplied pH 5.0, 10 mM sodium acetate buffer was immobilized onto the activated surface for 7 minutes. After immobilization, surfaces were deactivated with 1M ethanolamine/HCl (pH 8.5) for 7 minutes. The final immoblization levels reached ˜8,000 resonance units (RU) for mouse capture or 12,000 RU for human capture in each of the four flow cells.
Binding kinetics were measured on a biacore T200 in HBS-EP+(0.01 M HEPES pH 7.4, 0.15 M NaCl, 3 mM EDTA, 0.05% v/v Surfactant P20) running buffer at 25° C. Antibodies were captured either on mouse or human Fc capture surfaces at 10 μL/min flow rate. Antibodies were captured on flow cells 2, 3 and 4. Flow cell 1 was used as a reference with no antibody captured. A 6-point, 2-fold serial dilutions of the analyte 98AFK (hPD1-His), starting at 20 nM, were prepared in the running buffer (HBS-EP+). Two buffer blanks were included for double referencing. Titration series were injected for 3 minutes at 50 μl/min followed by 600 seconds of dissociation. After each cycle, surfaces were regenerated with a 30 second injection of 3M MgCl2 at […] on the anti-human Fc chip or 180 seconds of 10 mM Glycine pH 1.7 at 10 μl/min on the anti-mouse Fc chip.
Sensorgram processing and data analysis were performed with Biacore T200 Evaluation Software Version 2.0.4 (GE Healthcare). […] Processed curves were globally fitted to a 1:1 binding model to determine the association rate constant, kₒₙ (M⁻¹s⁻¹, where “M” equals molar and “s” equals seconds) and the dissociation rate constant, koff (s⁻¹). These rate constants were used to calculate the equilibrium dissociation constant, KD (M)=koff/kₒₙ.

[2] = molecular target: T1, polyhistidine-tagged human PD-1 …; assay: SPR solution affinity; reference Humanized 08A IgG4 S61N (98AIO)
Method: The titration series were incubated for 16-24 hours to reach equilibrium at room temperature. The unbound sites were measured using a BIAcore chip immobilized with antigen in a competition mode where SPR signal detected corresponded to unbound antibody.
The titration series following >16 hr. incubation were injected over the sensor chip immobilized with hPD1-His (above). Free, unbound antibodies concentrations were measured as proportional to RU after 120 seconds (for 500 pM mAb series) or 400 seconds (for 100 pM mAb series) of injection at 10 μL/min. After each cycle, surfaces were regenerated with a 30 second injection of 1:1 mixture of 3M MgCl2 and pH 2.0 10 mM glycine at 30 μL/min
Data analyses were performed using KINEXA Pro Version 1.02 (Sapydyne) where RUs were normalized and plotted against concentrations.

[3] = molecular target: human PD-1 on cells (human, UniProt Q15116 25-288); assay: cell-based or functional assay
Chain of human PD-1 on cells (Q15116 25-288): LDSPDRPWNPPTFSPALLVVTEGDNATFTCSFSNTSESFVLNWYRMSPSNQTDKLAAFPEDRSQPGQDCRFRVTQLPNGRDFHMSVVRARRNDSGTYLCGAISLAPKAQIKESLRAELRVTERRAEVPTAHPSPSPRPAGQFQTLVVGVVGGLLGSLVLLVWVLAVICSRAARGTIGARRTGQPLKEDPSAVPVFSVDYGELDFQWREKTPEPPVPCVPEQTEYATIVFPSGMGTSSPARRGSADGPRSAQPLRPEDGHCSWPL

T1 sequence (Q15116 25-167 limits assumed): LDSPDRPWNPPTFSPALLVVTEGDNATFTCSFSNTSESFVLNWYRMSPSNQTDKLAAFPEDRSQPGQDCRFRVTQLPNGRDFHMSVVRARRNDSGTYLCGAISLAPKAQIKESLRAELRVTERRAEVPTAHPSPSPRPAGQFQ

Row | Binder | KD (REF) / KD [1] [ratio] | KD (REF) / KD [2] [ratio] | AVG EC50 (nM), IL-2 luciferase reporter, Jurkat.hPD-1.IL2luc + THP-1.PD-L1 assay [3] [nM]
1 | Humanized 08A IgG4 Fab 100 S61N G56A (antibody, V domains shown, also called 25AVE) VH: EVQLVQSGAEVKKPGASVKVSCKASGYTFTSYYLYWVRQAPGQGLEWIGGVNPSNAGTNFNEKFKSRVTLTVDTSISTAYMELSRLRSDDTAVYYCTRRLSHYDGGFDYWGQGTTVTVSS VL: DIVMTQTPLSLSVTPGQPASISCRASKSVSTSGFSYLHWYLQKPGQPPQLLIFLSKYRSSGVPDRFSGSGSGTDFTLKISRVEAEDVGVYYCSQAYHLPLTFGQGTKLEIKR | 5.7 | > 13 | –
2 | Anti-PD-1/LAG3 bispecific antibody 90ASU (bispecific antibody, human IgG1, kappa, L234A L235A) heavy 1: not shown light 1: DIVMTQTPLSLSVTPGQPASISCRASKSVSTSGFSYLHWYLQKPGQPPQLLIFLASNLESGVPDRFSGSGSGTDFTLKISRVEAEDVGVYYCQHSWELPLTFGQGTKLEIKRTVAAPSVFIFPPSDERLKSGTASVVCLLNNFYPREAKVQWKVDNALQSGNSQESVTEQDSKDSTYSLSSRLTLSKADYEKHKVYACEVTHQGLSSPVTKSFNRGEC heavy 2: QMQLVQSGPEVKKPGTSVKVSCKASGYTFTDYNVDWVRQARGQRLEWIGDINPNDGGTIYAQKFQERVTITVDKSTSTAYMELSSLRSEDTAVYYCARNYRWFGAMDHWGQGTTVTVSSASTKGPSVFPLAPSSKSTSGGTAALGCLVKDYFPEPVTVSWNSGALTSGVHTFPAVLQSSGLYKLSSVVTVPSSSLGTQTYICNVNHKPSNTKVDKKVEPKSCDKTHTCPPCPAPEAAGGPSVFLFPPKPKDTLMISRTPEVTCVVVSVSHEDPEVKFNWYVDGVEVHNAKTKPREEQYNSTYRVVSVLTVLHQDWLNGKEYKCKVSNKALPAPIEKTISKAKGQPREPQVYVLPPSRDELTKNQVSLLCLVKGFYPSDIAVEWESNGQPENNYLTWPPVLDSDGSFFLYSKLTVDKSRWQQGNVFSCSVMHEALHNHYTQKSLSLSPG light 2: DIVMTQTPLSLSVTPGQPASISCKASQSLDYEGDSDMNWYLQKPGQPPQLLIYGASNLESGVPDRFSGSGSGTDFTLKISRVEAEDVGVYYCQQSTEDPRTFGGGTKVEIKRTVAAPSVFIFPPSDEELKSGTATVVCLLNNFYPREAKVQWKVDNALQSGNSQESVTEQDSKDSTYSLSSYLELSKADYEKHKVYACEVTHQGLSSPVTKSFNRGEC | – | – | 2.54
3 | Humanized 08A IgG4 S61N (lot 98AIO) (antibody, IgG4 S228P / kappa; also called 08A/HuPD1A-11 S61N S228P corrected IgG4 / Kappa) heavy: not shown light: DIVMTQTPLSLSVTPGQPASISCRASKSVSTSGFSYLHWYLQKPGQPPQLLIFLASNLESGVPDRFSGSGSGTDFTLKISRVEAEDVGVYYCQHSWELPLTFGQGTKLEIKRTVAAPSVFIFPPSDEQLKSGTASVVCLLNNFYPREAKVQWKVDNALQSGNSQESVTEQDSKDSTYSLSSTLTLSKADYEKHKVYACEVTHQGLSSPVTKSFNRGEC | 4.4 | 1 | –
4 | Humanized 08A IgG4 S61N G56A (antibody, V domains shown, IgG4 S228P / kappa; also called 51AQK; 08A/HuPD1A-11 S61N VH G56A IgG4 S228P / Kappa) VH: EVQLVQSGAEVKKPGASVKVSCKASGYTFTSYYLYWVRQAPGQGLEWIGGVNPSNAGTNFNEKFKSRVTLTVDTSISTAYMELSRLRSDDTAVYYCTRRDSNYDGGFDYWGQGTTVTVSS VL: DIVMTQTPLSLSVTPGQPASISCRASKSVSTSGFSYLHWYLQKPGQPPQLLIFLASNLESGVPDRFSGSGSGTDFTLKISRVEAEDVGVYYCQHSWELPLTFGQGTKLEIKR | 4.2 | 1 | –
5 | Humanized 08A IgG4 G56A (antibody, V domains shown, IgG4 S228P / kappa; also called 89AVZ; 08A/HuPD1A-11 G56A IgG4 S228P / Kappa) VH: EVQLVQSGAEVKKPGASVKVSCKASGYTFTSYYLYWVRQAPGQGLEWIGGVNPSNAGTNFSEKFKSRVTLTVDTSISTAYMELSRLRSDDTAVYYCTRRDSNYDGGFDYWGQGTTVTVSS VL: DIVMTQTPLSLSVTPGQPASISCRASKSVSTSGFSYLHWYLQKPGQPPQLLIFLASNLESGVPDRFSGSGSGTDFTLKISRVEAEDVGVYYCQHSWELPLTFGQGTKLEIKR | 2.4 | 0.6 | –
6 | Humanized 08A IgG4 Fab 098 G56A (antibody, V domains shown, IgG4 S228P / kappa; also called 90AVZ) VH: EVQLVQSGAEVKKPGASVKVSCKASGYTFTSYYLYWVRQAPGQGLEWIGGVNPSNAGTNFSEKFKSRVTLTVDTSISTAYMELSRLRSDDTAVYYCTRRLSHYDGGFDYWGQGTTVTVSS VL: DIVMTQTPLSLSVTPGQPASISCRASKSVSTSGFSYLHWYLQKPGQPPQLLIFLASNLESGVPDRFSGSGSGTDFTLKISRVEAEDVGVYYCQHSWELPLTFGQGTKLEIKR | 3 | 1.7 | –
7 | Humanized 08A IgG4 S61N N55E (antibody, V domains shown, IgG4 S228P / kappa; also called 50AQK; 08A/HuPD1A-11 N55E S228P IgG4 / Kappa) VH: EVQLVQSGAEVKKPGASVKVSCKASGYTFTSYYLYWVRQAPGQGLEWIGGVNPSEGGTNFNEKFKSRVTLTVDTSISTAYMELSRLRSDDTAVYYCTRRDSNYDGGFDYWGQGTTVTVSS VL: DIVMTQTPLSLSVTPGQPASISCRASKSVSTSGFSYLHWYLQKPGQPPQLLIFLASNLESGVPDRFSGSGSGTDFTLKISRVEAEDVGVYYCQHSWELPLTFGQGTKLEIKR | 0.8 | – | –
8 | Humanized 08A IgG4 S61N (lot 67AGG) (antibody, IgG4 S228P / kappa; differs from 98AIO by an HFR4 mutation; also called 08A/HuPD1A-11 S61N WT S228P IgG4 / Kappa, with HFR4 mutation) heavy: not shown light: DIVMTQTPLSLSVTPGQPASISCRASKSVSTSGFSYLHWYLQKPGQPPQLLIFLASNLESGVPDRFSGSGSGTDFTLKISRVEAEDVGVYYCQHSWELPLTFGQGTKLEIKRTVAAPSVFIFPPSDEQLKSGTASVVCLLNNFYPREAKVQWKVDNALQSGNSQESVTEQDSKDSTYSLSSTLTLSKADYEKHKVYACEVTHQGLSSPVTKSFNRGEC | 5.2 | – | –
9 | Humanized 08A IgG4 (antibody, V domains shown, IgG4 S228P / kappa, no CDRH2 corrections; also called 73AGG; 08A/HuPD1A-11 S228P IgG4 / Kappa) VH: EVQLVQSGAEVKKPGASVKVSCKASGYTFTSYYLYWVRQAPGQGLEWIGGVNPSNGGTNFSEKFKSRVTLTVDTSISTAYMELSRLRSDDTAVYYCTRRDSNYDGGFDYWGQGTTVTVSS VL: DIVMTQTPLSLSVTPGQPASISCRASKSVSTSGFSYLHWYLQKPGQPPQLLIFLASNLESGVPDRFSGSGSGTDFTLKISRVEAEDVGVYYCQHSWELPLTFGQGTKLEIKR | 1.7 | – | –
10 | Mouse 09A (antibody, mouse IgG1, kappa, V domains shown, Mouse IgG1/kappa; also called 03AFN; Mouse x [PD-1_H] mAb (clone 09A) IgG1 / Kappa) VH: QVQLQQPGAELVKPGTSVKLSCKASGYTFTNYYMYWVKQRPGQGLEWIGGINPSNGGTNFNEKFKNKATLTVDSSSSTTYMQLSSLTSEDSAVYYCTRRDYRFDMGFDYWGQGTTLTVSS VL: DIVLTQSPASLAVSLGQRAAISCRASKGVSTSGYSYLHWYQQKPGQSPKLLIYLASYLESGVPARFSGSGSGTDFTLNIHPVEEEDAATYYCQHSRDLPLTFGTGTKLELKR | 0.5 | – | –
11 | Mouse 08A (antibody, mouse IgG1, kappa, V domains shown, Mouse IgG1/kappa; also called 09AFF; parental mouse 08A antibody) VH: QVQLQQPGAELVKPGASVKLSCKASGYTFTSYYLYWMKQRPGQGLEWIGGVNPSNGGTNFSEKFKSKATLTVDKSSSTAYMQLSSLTSEDSAVYYCTRRDSNYDGGFDYWGQGTTLTVSS VL: DIVLTQSPTSLAVSLGQRATISCRASKSVSTSGFSYLHWYQQKPGQPPKLLIFLASNLESGVPARFSGSGSGTDFTLNIHPVEEEDAATYYCQHSWELPLTFGAGTKLELKR | 1 | – | –
12 | Mouse 08A N59E (antibody, mouse IgG1, kappa, V domains shown, also called 39AFL; Clone 1.08 N59E) VH: QVQLQQPGAELVKPGASVKLSCKASGYTFTSYYLYWMKQRPGQGLEWIGGVNPSNGGTEFSEKFKSKATLTVDKSSSTAYMQLSSLTSEDSAVYYCTRRDSNYDGGFDYWGQGTTLTVSS VL: DIVLTQSPTSLAVSLGQRATISCRASKSVSTSGFSYLHWYQQKPGQPPKLLIFLASNLESGVPARFSGSGSGTDFTLNIHPVEEEDAATYYCQHSWELPLTFGAGTKLELKR | 0.03 | – | –
13 | Mouse 08A N59A (antibody, mouse IgG1, kappa, V domains shown, also called 80AFH; Clone 1.08 N59A) VH: QVQLQQPGAELVKPGASVKLSCKASGYTFTSYYLYWMKQRPGQGLEWIGGVNPSNGGTAFSEKFKSKATLTVDKSSSTAYMQLSSLTSEDSAVYYCTRRDSNYDGGFDYWGQGTTLTVSS VL: DIVLTQSPTSLAVSLGQRATISCRASKSVSTSGFSYLHWYQQKPGQPPKLLIFLASNLESGVPARFSGSGSGTDFTLNIHPVEEEDAATYYCQHSWELPLTFGAGTKLELKR | 0.4 | – | –
14 | Mouse 08A N59Q (antibody, mouse IgG1, kappa, V domains shown, also called 38AFL; Clone 1.08 N59Q) VH: QVQLQQPGAELVKPGASVKLSCKASGYTFTSYYLYWMKQRPGQGLEWIGGVNPSNGGTQFSEKFKSKATLTVDKSSSTAYMQLSSLTSEDSAVYYCTRRDSNYDGGFDYWGQGTTLTVSS VL: DIVLTQSPTSLAVSLGQRATISCRASKSVSTSGFSYLHWYQQKPGQPPKLLIFLASNLESGVPARFSGSGSGTDFTLNIHPVEEEDAATYYCQHSWELPLTFGAGTKLELKR | 0.04 | – | –
